# “Also recorded” adds a separate entry of the source.
# Columns and labels:
# [1] = biological target: T1, interaction of Gal3 and TIM-3 (Homo sapiens, UniProt P17931); assay: Gal3-TIM-3 interaction blockade ELISA (Example 13); type: binding; settings: antibody at 20 ug/ml
# T1 construct: full-length human Galectin-3 protein (Acro Biosystems, GA3-H5129); linker-spaced 6-histidine tag; purchased Acro Biosystems GA3-H5129 (Gal3); TM3-H5229 (TIM-3)
# Protocol: To identify Gal3-targeted antibodies with the ability to block the interaction of Gal3 and TIM-3, purified Gal3 and TIM-3 proteins were incubated in the presence (or absence) of various Gal3-targeted or control antibodies, or without antibody, and protein interaction was evaluated by ELISA.
# Human Gal3 protein (Acro Biosystems, GA3-H5129) was diluted in phosphate buffered saline (PBS) (Corning) to a concentration of 0.5 μg/ml and 100 ul of the diluted hGal3 was added to each well of a 96-well ELISA plate (Thermo Fisher, 44-2404-21). After incubating the plate at 4° C. overnight, the plate was washed three times with 300 μl of PBS with 0.05% TWEEN (VWR) (PBST) per well. The plate was then blocked for an hour with 200 μl of 2% bovine serum albumin (BSA) (Sigma) in PBST per well at room temperature with gentle rocking. […]
# Afterwards, 50 ul of 1 ug/ml of human TIM-3 extracellular domain protein (Acro Biosystems, TM3-H5229) in 2% BSA in PBST was added to the wells. […] The plate was read using a plate reader (Molecular Devices) at absorbance of 450 nm. Percent blockade of Gal3-TIM-3 interaction was calculated as the fraction of signal obtained in the absence of antibody with the background signal subtracted.
# [2] = test system: STAM HFD-CDAA mouse model of liver fibrosis; assay: STAM CDAA-HFD mouse model of liver fibrosis; type: in vivo
# Protocol: To confirm that the observed reduction of liver fibrosis in the MCD mouse model was not unique to this setting, the activity of mIMT001 was explored in the STAM HFD-CDAA mouse model of liver fibrosis. Briefly, Two-day-old male C57Bl/6 mice were injected by a single subcutaneous injection of 200 ug of streptozotocin to cause islet destruction and then fed CDAA-high fat diet (Research Diet #A06071302) starting at 4 weeks of age and continuing for the entire duration of each study. At 8 weeks of age, mice were divided into two groups (seven mice each) based on ALT score. Mice were treated human anti-mIgG4 isotype control (hIgG4, 10 mg/kg) or human anti-Gal3 antibody (IMT001-4, 10 mg/kg) twice a week by intraperitoneal injection for 4 weeks. All animal care and procedures were approved by the Immutics IACUC.
# human Gal3 protein = assay: Epitope binding of IMT001, hGal3 peptide array dot blot and peptide ELISA; settings: dot blot, 1 ug/ml antibody
# Protocol: A peptide array containing 24 20 amino acid peptides overlapping by 10 amino acid and covering the whole human Gal3 protein sequence was synthesized (Genscript, Piscataway, N.J.) (FIG. 11A). 20 μg of each peptide was dot blotted onto a membrane. After blocking with 5% milk in PBS, the membrane was incubated with 1 ug/ml IMT001 antibody at 4C for overnight. After three times of washes, the membrane was incubated with 1:8000 diluted anti mIgG HRP antibody (Southern Biotech, Birmingham, Ala.) for one hour. After three times of washes, the membrane was incubated with Western ECL blotting substrates (Bio-Rad, Hercules, Calif.) and developed (FIG. 11B).
# To further define binding epitope of IMT001 on the above peptide, 8 shorter peptides derived from it were synthesized (Genscript, Piscataway, N.J.) (FIG. 11C) and their binding by IMT001 was determined by ELISA (FIG. 11D). 96 well Elisa plate (Thermo Scientific) was coated with these peptides in PBS buffer and incubated at 4° C. for overnight. The plate was washed three times with TBST and then blocked with PBST buffer containing 2% BSA at room temperature for 1 h. IMT001 at 10 μg/mL was incubated in the coated Elisa plate at room temperature for 1 h. […] The optical density (OD) was read at 450 nm. The results were expressed as the average OD of duplicates±SD.
# [3] = test system: Human peripheral blood mononuclear cells (PBMCs); assay: CMV antigen recall assay, IFN gamma; type: cell-based; settings: 10 ug/ml final, CMV 4 days, vs isotype control
# Protocol: To assess the ability of Gal3-targeted antibodies with Gal3-TIM-3 blocking activity to enhance T-cell mediated responses, a CMV antigen recall assay was used. Human peripheral blood mononuclear cells (PBMCs) (Astarte, donor ID 230) were quickly thawed in 37 C water bath, resuspended in 20 ml of RPMI media with 10% FBS, and centrifuged at 1500 RPM for 5 min. Media was discarded pellet resuspended in 20 ml media and counted by […], and diluted to a final concentration of 4 million/ml in Serum free Media (Lonza). 50 ul of media plus cells (200,000 cells/well) were added to 60 inner wells of a 96 well round bottom plate, and incubated at 37 C for 30 min. Antibodies were added to serum free media to a stock concentration of 4× the final concentration (40 ug/ml). 50 ul of antibodies at 4× concentration were added directly to the PBMCS and incubated at 37 C for 30 min. After PBMCs were incubated with antibodies for 30 min, 100 ul of CMV (Astarte Biologics, Cat. #1004) at 2× concentration (1 ug/ml) directly to the cells and incubated for 4 days at 37 C. On Day 4, 10 ul of cell supernatant were collected to measure human IFN gamma concentration by ELISA via a human IFN-gamma ELISA kit (Invitrogen).
# T1 sequence (P17931 2-250 limits assumed): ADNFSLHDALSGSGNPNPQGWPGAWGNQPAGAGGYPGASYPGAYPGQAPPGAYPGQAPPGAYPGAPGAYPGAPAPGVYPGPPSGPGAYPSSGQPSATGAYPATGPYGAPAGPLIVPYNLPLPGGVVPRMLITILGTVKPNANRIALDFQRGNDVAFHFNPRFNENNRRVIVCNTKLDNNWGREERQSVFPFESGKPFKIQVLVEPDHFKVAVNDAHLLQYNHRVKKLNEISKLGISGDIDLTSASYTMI
molecule,measurement,setting,value
"IMT001: anti-Gal3 monoclonal antibody (Immutics); printed as mIMT001 (IMT001), murine (antibody, V domains shown) VH: QIQLVQSGPELKKPGETVKISCKASGYTFTNYGMNWVKQAPGKGLKWMGWINTNTGEPTYVEEFKGRFAFSLETSASTAYLQINNLKNEDTATYFCAPYDNFFAYWGQGTLVTVSA VL: DIVITQDELSNPVTSGESVSISCRSSKSLLYKDGKTYLNWFLQRPGQSPQLLIYLMSTHASGVSDRFSGSGSGTDFTLEISRVKAEDVGVYYCQQLVDYPLTFGAGTKLELK","Gal3-TIM-3 binding, % of unblocked control (no antibody)",[1],7%
same,% area picosirius red staining,"[2]; liver, 10 mg/kg twice a week i.p. for 4 weeks",1.66%
same,reduction of picosirius red staining,[2]; vs isotype control,67%
same,"epitope on hGal3, 20 amino acid peptide array",human Gal3 protein,Peptides 5 and 6; also recorded: peptide_5
same,interferon-gamma secretion,[3],significantly increased levels
